One assay concerns the target T1, Human CD3ε (human, UniProt P07766 23-126).
T1 construct: CD3 on T cells isolated from human whole blood
Briefly: flow cytometry, human T cells. An outline of the steps: (§1)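 Antigen-positive tumor cells or isolated T cells, 2×10⁵/well, 1% FBS-PBS, on ice. Ab 3000 nM top, 3-fold ×11, 2 h 4° C shaking; wash; PE anti-hIgG Fc 8 ug/ml, 1 h 4° C. FACS MFI; EC50, one site–specific binding.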
(In general: A flow cytometer gives signals particle by particle.)

The target of assay [1] is T2, human CEA (human, UniProt P06731 35-685).
T2 sequence: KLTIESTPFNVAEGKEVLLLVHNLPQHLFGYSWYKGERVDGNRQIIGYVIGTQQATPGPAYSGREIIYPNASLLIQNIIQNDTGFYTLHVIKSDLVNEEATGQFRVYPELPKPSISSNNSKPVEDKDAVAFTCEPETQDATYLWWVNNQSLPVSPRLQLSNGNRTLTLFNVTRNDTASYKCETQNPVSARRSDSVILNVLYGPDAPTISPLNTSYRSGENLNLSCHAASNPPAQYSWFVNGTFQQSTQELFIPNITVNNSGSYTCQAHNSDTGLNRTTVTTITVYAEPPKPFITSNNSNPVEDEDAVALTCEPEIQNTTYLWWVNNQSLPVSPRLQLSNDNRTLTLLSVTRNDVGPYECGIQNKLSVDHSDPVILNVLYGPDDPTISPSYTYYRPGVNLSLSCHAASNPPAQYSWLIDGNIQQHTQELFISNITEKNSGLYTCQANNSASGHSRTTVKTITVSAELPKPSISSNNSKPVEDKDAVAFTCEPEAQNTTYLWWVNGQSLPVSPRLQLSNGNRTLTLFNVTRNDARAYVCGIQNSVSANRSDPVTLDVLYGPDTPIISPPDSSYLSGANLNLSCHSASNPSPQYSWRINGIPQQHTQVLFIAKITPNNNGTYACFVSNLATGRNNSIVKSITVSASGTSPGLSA
Briefly: flow cytometry, human tumor cells (CEA+). From the text: 1) Cell preparation: T cells isolated from CD3-positive human whole blood were used for a CD3 end affinity detection of multifunctional antibody molecule; positive tumor cells of corresponding antigen were used for detecting affinity of tumor antigen; for example, CD38-positive MM. 1S cells (purchased from the Cell Resource Center of Shanghai Institutes for Biological Sciences, Chinese Academy of Sciences) or RPMI 8226 cells (purchased from the Cell Resource Center of Shanghai Institutes for Biological Sciences, Chinese Academy of Sciences) were used for CD38 antigen detection, and PD-L1 positive H358 cells (purchased from the Cell Resource Center of Shanghai Institutes for Biological Sciences, Chinese Academy of Sciences) were used for PD-L1 antigen detection, and so on. The cells were resuspended with 1% FBS-PBS, adjusted to a density of 4×10⁶/ml, and 50 μl of cells were taken from each well, and then plated at 2×10⁵ per well. Cell plating was operated on ice
2) Addition of the antibody: according to the experimental design, the antibody was diluted gradually, and dilution of antibody was operated on ice. For example, the initial concentration of antibody for dilution was 3000 nM, and the antibody was diluted by 3 times with 11 concentration gradients. The diluted antibody was added to a cell well at 50 μl per well, mixed well, and shaked and incubated at 4° C. 1100 rpm/min for 2 h; after washing, the cells were resuspend in 1% FBS-PBS, and a diluted secondary antibody PE anti-human IgG FC (Biolegend, 409304) was added with a final concentration of 8 ug/ml and a volume of 50 μl/well. At the same time, a well only added with cells and secondary antibody was set as a control, the components were mixed well, and incubated under shaking at 1100 rpm/min at 4° C. for 1 h;
5) Data analysis: the data was analyzed by a flow analysis software FlowJo 7.6 thereby obtaining an average fluorescence intensity of the specific antibody concentration, plotted by a Graphpad Prism 5 with the antibody concentration (nM) as an abscissa and the average fluorescence intensity as an ordinate; the EC50 value was calculated by the method of One site—Specific binding, and the EC50 value indicated the cell affinity of the antibody to the corresponding target antigen.

For a further assay, the target named is T3, Monkey CD3 (monkey).
T3 construct: whole, on cells; also called CD3 of monkey CD3 positive T cells
Briefly: flow cytometry, monkey T cells.

The target of assay [2] is T2, human CEA. Put plainly: flow cytometry, human tumor cells (table of the CEA series). The procedure, abridged: as §1

B1: CEA-M3-NA (bispecific antibody, human IgG1, kappa, N297A)
fusion heavy: QVQLVQSGSELKKPGASVKVSCKASGYTFTVFGMNWVRQAPGQGLEWMGWINTKTGEATYVEEFKGRFVFSLDTSVSTAYLQISSLKADDTAVYYCARWDFYDYVEAMDYWGQGTTVTVSSASTKGPSVFPLAPSSKSTSGGTAALGCLVKDYFPEPVTVSWNSGALTSGVHTFPAVLQSSGLYSLSSVVTVPSSSLGTQTYICNVNHKPSNTKVDKKVEPKSCGGGGSGGGGSQVQLVESGGGVVQPGRSLRLSCAASGFTFSTYAMNWVRQAPGKGLEWVARIRSKYNNYATYYADSVKDRFTISRDDSKNTLYLQMNSLRAEDTAVYYCARHGNFGNSYVSWFAYWGQGTLVTVSSASVAAPSVFIFPPSDEQLKSGTASVVCLLNNFYPREAKVQWKVDNALQSGNSQESVTEQDSKDSTYSLSSTLTLSKADYEKHKVYACEVTHQGLSSPVTKSFNRGECDKTHTCPPCPAPELLGGPSVFLFPPKPKDTLMISRTPEVTCVVVDVSHEDPEVKFNWYVDGVEVHNAKTKPREEQYASTYRVVSVLTVLHQDWLNGKEYKCKVSNKALPAPIEKTISKAKGQPREPQVYTLPPCRDELTKNQVSLWCLVKGFYPSDIAVEWESNGQPENNYKTTPPVLDSDGSFFLYSKLTVDKSRWQQGNVFSCSVMHEALHNHYTQKSLSLSPGK
cross light: QTVVTQEPSLTVSPGGTVTLTCRSSTGAVTTSNYANWVQQKPGQAPRGLIGGTNKRAPGVPARFSGSLLGGKAALTLSGVQPEDEAEYYCALWYSNLWVFGGGTKVEIKSSASTKGPSVFPLAPSSKSTSGGTAALGCLVKDYFPEPVTVSWNSGALTSGVHTFPAVLQSSGLYSLSSVVTVPSSSLGTQTYICNVNHKPSNTKVDKKVEPKSC
heavy: QVQLVQSGSELKKPGASVKVSCKASGYTFTVFGMNWVRQAPGQGLEWMGWINTKTGEATYVEEFKGRFVFSLDTSVSTAYLQISSLKADDTAVYYCARWDFYDYVEAMDYWGQGTTVTVSSASTKGPSVFPLAPSSKSTSGGTAALGCLVKDYFPEPVTVSWNSGALTSGVHTFPAVLQSSGLYSLSSVVTVPSSSLGTQTYICNVNHKPSNTKVDKKVEPKSCDKTHTCPPCPAPELLGGPSVFLFPPKPKDTLMISRTPEVTCVVVDVSHEDPEVKFNWYVDGVEVHNAKTKPREEQYASTYRVVSVLTVLHQDWLNGKEYKCKVSNKALPAPIEKTISKAKGQPREPQVCTLPPSRDELTKNQVSLSCAVKGFYPSDIAVEWESNGQPENNYKTTPPVLDSDGSFFLVSKLTVDKSRWQQGNVFSCSVMHEALHNRFTQKSLSLSPGK
light: DIQMTQSPSSLSASVGDRVTITCKASQNVGTNVAWYQQKPGKAPKLLIYSASYRYSGVPSRFSGSGSGTDFTFTISSLQPEDIATYYCHQYYTYPLFTFGQGTKVEIKRTVAAPSVFIFPPSDEQLKSGTASVVCLLNNFYPREAKVQWKVDNALQSGNSQESVTEQDSKDSTYSLSSTLTLSKADYEKHKVYACEVTHQGLSSPVTKSFNRGEC
notes: structure 3; CEA x CD3; CH2 N297A; copies: 1 + 1 + 1 + 2
What is called EC50 is the concentration that produces a half-maximal response. In the case of B1, the figures for the EC50 with Human CD3ε, with human CEA [1] and in the assay with Monkey CD3 were 688 nM, 32.1 nM and 798 nM, respectively.

B2: M3IC-WT (bispecific antibody)
fusion heavy: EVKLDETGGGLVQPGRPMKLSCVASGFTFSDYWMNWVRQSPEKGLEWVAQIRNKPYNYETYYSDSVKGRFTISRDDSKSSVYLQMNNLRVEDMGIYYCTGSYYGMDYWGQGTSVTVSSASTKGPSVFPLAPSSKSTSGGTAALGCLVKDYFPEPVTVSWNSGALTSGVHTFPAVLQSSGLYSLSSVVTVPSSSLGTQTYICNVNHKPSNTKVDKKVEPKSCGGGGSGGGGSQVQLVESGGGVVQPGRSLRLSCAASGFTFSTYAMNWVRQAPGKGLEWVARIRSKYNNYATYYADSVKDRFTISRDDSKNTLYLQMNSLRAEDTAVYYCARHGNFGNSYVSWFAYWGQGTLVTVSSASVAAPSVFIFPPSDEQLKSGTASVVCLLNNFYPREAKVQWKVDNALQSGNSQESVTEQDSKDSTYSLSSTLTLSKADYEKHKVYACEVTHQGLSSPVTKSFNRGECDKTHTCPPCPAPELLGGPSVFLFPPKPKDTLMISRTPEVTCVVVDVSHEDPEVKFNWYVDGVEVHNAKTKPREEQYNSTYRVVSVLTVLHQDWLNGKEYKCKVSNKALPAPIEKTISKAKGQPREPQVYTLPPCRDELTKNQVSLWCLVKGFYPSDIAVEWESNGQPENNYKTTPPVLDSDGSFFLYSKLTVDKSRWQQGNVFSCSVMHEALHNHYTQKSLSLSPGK
cross light: QTVVTQEPSLTVSPGGTVTLTCRSSTGAVTTSNYANWVQQKPGQAPRGLIGGTNKRAPGVPARFSGSLLGGKAALTLSGVQPEDEAEYYCALWYSNLWVFGGGTKVEIKSSASTKGPSVFPLAPSSKSTSGGTAALGCLVKDYFPEPVTVSWNSGALTSGVHTFPAVLQSSGLYSLSSVVTVPSSSLGTQTYICNVNHKPSNTKVDKKVEPKSC
heavy: EVKLDETGGGLVQPGRPMKLSCVASGFTFSDYWMNWVRQSPEKGLEWVAQIRNKPYNYETYYSDSVKGRFTISRDDSKSSVYLQMNNLRVEDMGIYYCTGSYYGMDYWGQGTSVTVSSASTKGPSVFPLAPSSKSTSGGTAALGCLVKDYFPEPVTVSWNSGALTSGVHTFPAVLQSSGLYSLSSVVTVPSSSLGTQTYICNVNHKPSNTKVDKKVEPKSCDKTHTCPPCPAPELLGGPSVFLFPPKPKDTLMISRTPEVTCVVVDVSHEDPEVKFNWYVDGVEVHNAKTKPREEQYNSTYRVVSVLTVLHQDWLNGKEYKCKVSNKALPAPIEKTISKAKGQPREPQVCTLPPSRDELTKNQVSLSCAVKGFYPSDIAVEWESNGQPENNYKTTPPVLDSDGSFFLVSKLTVDKSRWQQGNVFSCSVMHEALHNRFTQKSLSLSPGK
light: DVVMTQTPLSLPVSLGDQASISCRSSQSLVHSNGNTYLRWYLQKPGQSPKVLIYKVSNRFSGVPDRFSGSGSGTDFTLKISRVEAEDLGVYFCSQSTHVPWTFGGGTKLEIKRTVAAPSVFIFPPSDEQLKSGTASVVCLLNNFYPREAKVQWKVDNALQSGNSQESVTEQDSKDSTYSLSSTLTLSKADYEKHKVYACEVTHQGLSSPVTKSFNRGEC
notes: structure 3 isotype control; CH2 WT; copies: 1 + 1 + 1 + 2
As to B2, the EC50 in the assay with Human CD3ε was found to be 637 nM; in the assay with Monkey CD3 it was 709 nM. For the same molecule, the binding result with human CEA [2] is on record as “no binding”.

B3: M3IC-AAG (bispecific antibody)
fusion heavy: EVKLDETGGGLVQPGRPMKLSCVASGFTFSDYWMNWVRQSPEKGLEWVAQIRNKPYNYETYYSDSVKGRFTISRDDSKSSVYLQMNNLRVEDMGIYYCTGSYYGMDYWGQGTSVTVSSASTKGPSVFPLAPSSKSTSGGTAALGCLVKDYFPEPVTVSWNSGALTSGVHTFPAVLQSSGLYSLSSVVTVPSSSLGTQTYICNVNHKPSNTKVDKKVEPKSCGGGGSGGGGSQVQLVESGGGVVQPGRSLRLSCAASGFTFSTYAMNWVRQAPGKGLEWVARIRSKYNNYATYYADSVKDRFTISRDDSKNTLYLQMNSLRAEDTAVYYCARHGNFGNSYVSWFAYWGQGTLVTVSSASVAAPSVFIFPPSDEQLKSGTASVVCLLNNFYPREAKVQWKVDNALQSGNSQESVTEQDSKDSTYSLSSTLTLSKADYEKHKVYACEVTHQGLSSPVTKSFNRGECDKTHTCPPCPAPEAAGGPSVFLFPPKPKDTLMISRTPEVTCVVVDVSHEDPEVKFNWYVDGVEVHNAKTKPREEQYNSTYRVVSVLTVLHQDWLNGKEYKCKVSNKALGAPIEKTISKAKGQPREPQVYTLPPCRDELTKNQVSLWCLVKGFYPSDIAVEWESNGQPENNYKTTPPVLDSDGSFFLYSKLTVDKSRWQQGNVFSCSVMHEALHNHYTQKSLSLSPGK
cross light: QTVVTQEPSLTVSPGGTVTLTCRSSTGAVTTSNYANWVQQKPGQAPRGLIGGTNKRAPGVPARFSGSLLGGKAALTLSGVQPEDEAEYYCALWYSNLWVFGGGTKVEIKSSASTKGPSVFPLAPSSKSTSGGTAALGCLVKDYFPEPVTVSWNSGALTSGVHTFPAVLQSSGLYSLSSVVTVPSSSLGTQTYICNVNHKPSNTKVDKKVEPKSC
heavy: EVKLDETGGGLVQPGRPMKLSCVASGFTFSDYWMNWVRQSPEKGLEWVAQIRNKPYNYETYYSDSVKGRFTISRDDSKSSVYLQMNNLRVEDMGIYYCTGSYYGMDYWGQGTSVTVSSASTKGPSVFPLAPSSKSTSGGTAALGCLVKDYFPEPVTVSWNSGALTSGVHTFPAVLQSSGLYSLSSVVTVPSSSLGTQTYICNVNHKPSNTKVDKKVEPKSCDKTHTCPPCPAPEAAGGPSVFLFPPKPKDTLMISRTPEVTCVVVDVSHEDPEVKFNWYVDGVEVHNAKTKPREEQYNSTYRVVSVLTVLHQDWLNGKEYKCKVSNKALGAPIEKTISKAKGQPREPQVCTLPPSRDELTKNQVSLSCAVKGFYPSDIAVEWESNGQPENNYKTTPPVLDSDGSFFLVSKLTVDKSRWQQGNVFSCSVMHEALHNRFTQKSLSLSPGK
light: DVVMTQTPLSLPVSLGDQASISCRSSQSLVHSNGNTYLRWYLQKPGQSPKVLIYKVSNRFSGVPDRFSGSGSGTDFTLKISRVEAEDLGVYFCSQSTHVPWTFGGGTKLEIKRTVAAPSVFIFPPSDEQLKSGTASVVCLLNNFYPREAKVQWKVDNALQSGNSQESVTEQDSKDSTYSLSSTLTLSKADYEKHKVYACEVTHQGLSSPVTKSFNRGEC
notes: structure 3 isotype control; CH2 AAG; copies: 1 + 1 + 1 + 2
Take B3: the EC50 worked out at 606 nM with Human CD3ε and 659 nM in the assay with Monkey CD3. Also, the binding result with human CEA [2] is “no binding”.

The record behind these values is US20220098307A1 (WUHAN YZY BIOPHARMA, published 2022).
